“And” between values parts separate entries of the source, which are not always exact repeats. Equal values may be shown once.
Tests used:
[1] = target: T1, full-length D6E large terminase (1–427) (synthetic construct, UniProt Z9WCS4P2M6); assay: thermal shift assay (SYPRO Orange); assay type: binding; details: 5 mM nucleotide, 5 mM MgCl2, 5 mM HEPES pH 7.5, 5 mM potassium glutamate, 5 μM protein
T1 construct: full length residues 1-427; N-terminal His6-3C tag cleaved; codon-optimized synthetic gene, E. coli BL21-Gold(DE3); monomer by SEC, monomer to pentamer by AUC, active oligomer proposed pentameric
T1 sequence (Z9WCS4P2M6 4-430): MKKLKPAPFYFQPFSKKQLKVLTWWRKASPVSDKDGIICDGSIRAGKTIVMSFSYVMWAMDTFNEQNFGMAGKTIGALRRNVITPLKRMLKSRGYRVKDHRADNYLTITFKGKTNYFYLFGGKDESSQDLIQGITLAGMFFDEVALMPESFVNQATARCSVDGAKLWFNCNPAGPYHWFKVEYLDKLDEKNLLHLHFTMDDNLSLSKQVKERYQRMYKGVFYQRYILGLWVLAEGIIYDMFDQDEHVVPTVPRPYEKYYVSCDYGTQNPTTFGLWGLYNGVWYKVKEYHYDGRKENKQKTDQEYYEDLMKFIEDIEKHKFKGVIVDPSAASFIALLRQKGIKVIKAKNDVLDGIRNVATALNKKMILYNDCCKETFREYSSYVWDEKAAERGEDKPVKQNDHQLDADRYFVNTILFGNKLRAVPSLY

[2] = system: Nc1ncnc2c1ncn2[C@@H]1O[C@H](COP(=O)(O)OP(=O)(O)OP(=O)(O)O)[C@@H](O)[C@H]1O; assay: purified protein; details: 10 mM HEPES pH 7.5, 50 mM potassium glutamate, 10 mM MgCl2, room temperature, 4.5 μM protein
[3] = target: D6E large terminase ATPase domain (1–234) (Geobacillus stearothermophilus bacteriophage D6E); assay: SEC; ATPase domain alone (Supplementary Figure S1C); conditions not shown

Which ΔTm [1] does the source give for `Nc1ncnc2c1ncn2[C@@H]1O[C@H](COP(=O)(O)OP(=O)(O)O)[C@@H](O)[C@H]1O` [ADP] here?
Its ΔTm is 2.3 °C.

Which ΔTm [1] does the source give for `Nc1ncnc2c1ncn2[C@@H]1O[C@H](COP(=O)(O)OP(=O)(O)OP(O)(O)=S)[C@@H](O)[C@H]1O` [ATP-γ-S] here?
The ΔTm was 7.8 °C.

What does the source list for “C-terminally truncated protein (1–417) (synthetic construct)”?
Km [2]: 196.72 ± 8.0 µM; kcat [2]: 0.0583 ± 0.00067 s⁻¹

Which stoichiometry N [3] does the source give for “D6E large terminase ATPase domain (1–234) (domain or fragment)” here?
The stoichiometry N was 4 and 5.

Reference: PMC5727402, “Structure of the large terminase from a hyperthermophilic virus reveals a unique mechanism for oligomerization and ATP hydrolysis” (Nucleic Acids Research, 2017)
